Target: 天然TSLP
Assay: cell-based or functional assay

Substance: Tezepelumab (antibody)
- IC50 of inhibition of natural TSLP-induced STAT5 phosphorylation in SW756-STAT5-Luciferase reporter cells: 1.45 ng/mL

From patent CN114028561A
